Assay results reported in patent US20210163946A1.

Molecular target: human C5a receptor (human) (UniProt P21730)
Test: cell-based or functional assay

Sequence of human C5a receptor (human) (P21730 whole entry): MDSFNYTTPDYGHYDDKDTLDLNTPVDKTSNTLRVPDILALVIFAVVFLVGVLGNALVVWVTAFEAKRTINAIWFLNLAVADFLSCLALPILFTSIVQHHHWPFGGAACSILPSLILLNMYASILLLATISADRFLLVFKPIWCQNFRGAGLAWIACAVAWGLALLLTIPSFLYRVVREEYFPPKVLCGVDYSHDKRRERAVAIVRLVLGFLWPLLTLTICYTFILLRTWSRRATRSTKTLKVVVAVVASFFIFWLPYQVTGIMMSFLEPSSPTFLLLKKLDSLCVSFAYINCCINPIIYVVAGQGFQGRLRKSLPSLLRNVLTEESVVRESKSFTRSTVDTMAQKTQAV

| half-maximal effective concentration (EC50) of chemotaxis of BA/F3/huC5aR cells | Substance |
| --- | --- |
| 0.3 nM | mouse C5a (from UniProt P06684 679-755) (ligand) |
| 0.1 nM | recombinant human C5a (from UniProt P01031 678-751) (ligand) |
